Results taken from US20240101716A1 (LA NOVA MEDICINES DEVELOPMENT, published 2024).

Key:
PD-L1 expressed on cells = target: T1, PD-L1 expressed on cells (UniProt Q9NZQ7 19-290, limits assumed); test: FACS binding test on PD-L1 cell line, Geom.Mean; unit from the axis log(nm)
T1 construct: whole, on cells

[1] = target: PD-L1 (blocking assay of Example 11) (UniProt Q9NZQ7 19-239, limits assumed); test: cell-based or functional assay
[2] = target: T2, recombinant human SIRPα variant 2 protein (human, UniProt P78324 31-370, limits assumed); test: ELISA on coated recombinant human SIRPα v2, OD450
T2 construct: polymorphic variant 2; also called SIRPα v2; hSIRPαV2
T2 sequence (P78324 other isoform, or with tags, fused parts or gaps mutant limits assumed): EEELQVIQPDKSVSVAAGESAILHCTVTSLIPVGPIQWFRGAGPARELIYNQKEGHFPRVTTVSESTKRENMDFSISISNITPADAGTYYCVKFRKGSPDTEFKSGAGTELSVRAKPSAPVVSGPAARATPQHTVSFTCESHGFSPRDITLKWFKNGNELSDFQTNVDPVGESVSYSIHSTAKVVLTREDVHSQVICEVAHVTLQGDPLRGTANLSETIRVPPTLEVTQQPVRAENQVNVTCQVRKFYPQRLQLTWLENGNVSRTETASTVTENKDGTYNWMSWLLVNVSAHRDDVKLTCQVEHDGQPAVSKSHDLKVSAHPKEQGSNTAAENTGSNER
Protocol: After coating of the antigen, the wells were blocked with PBS/0.05% Tween (PBST) with 1% BSA for 1 h at RT.
Between all incubation steps, the wells of the plate were washed with PBST three times. […]

PD-L1 (blocking assay of Example 11), sequence (Q9NZQ7 19-239 limits assumed): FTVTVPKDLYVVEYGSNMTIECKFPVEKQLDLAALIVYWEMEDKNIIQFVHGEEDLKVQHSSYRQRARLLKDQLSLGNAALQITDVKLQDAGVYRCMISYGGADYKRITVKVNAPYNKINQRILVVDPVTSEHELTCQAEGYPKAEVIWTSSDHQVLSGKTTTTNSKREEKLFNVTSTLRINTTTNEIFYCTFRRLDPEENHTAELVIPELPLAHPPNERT
T1 sequence (Q9NZQ7 19-290 limits assumed): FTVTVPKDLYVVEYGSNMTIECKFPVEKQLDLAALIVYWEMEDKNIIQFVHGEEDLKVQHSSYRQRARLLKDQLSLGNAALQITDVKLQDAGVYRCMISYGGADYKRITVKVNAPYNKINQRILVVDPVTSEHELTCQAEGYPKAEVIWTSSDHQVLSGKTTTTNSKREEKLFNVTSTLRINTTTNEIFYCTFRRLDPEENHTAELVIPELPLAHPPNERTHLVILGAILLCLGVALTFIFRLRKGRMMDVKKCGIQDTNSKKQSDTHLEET

B1: PD-L1/SIRPa-LC2 (bispecific antibody, human IgG4 S228P, kappa)
heavy: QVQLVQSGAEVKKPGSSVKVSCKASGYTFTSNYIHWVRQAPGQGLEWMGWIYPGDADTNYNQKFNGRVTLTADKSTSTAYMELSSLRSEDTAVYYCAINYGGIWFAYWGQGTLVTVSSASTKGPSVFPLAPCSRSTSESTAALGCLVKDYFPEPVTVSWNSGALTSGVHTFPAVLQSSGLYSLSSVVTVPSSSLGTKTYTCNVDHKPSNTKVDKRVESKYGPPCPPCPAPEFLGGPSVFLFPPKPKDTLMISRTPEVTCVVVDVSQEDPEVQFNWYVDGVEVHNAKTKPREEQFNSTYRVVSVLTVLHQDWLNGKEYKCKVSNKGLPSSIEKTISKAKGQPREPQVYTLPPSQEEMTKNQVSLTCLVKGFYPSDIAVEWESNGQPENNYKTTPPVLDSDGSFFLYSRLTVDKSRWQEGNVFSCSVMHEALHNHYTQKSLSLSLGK
light: DIQMTQSPSSLSASVGDRVTITCQASQDIGNKLIWYQQKPGKAPKLLIYYVTNLPGGVPSRFSGSGSGTDFTLTISSLQPEDFATYYCLQYKQNPLTFGQGTKLEIKRTVAAPSVFIFPPSDEQLKSGTASVVCLLNNFYPREAKVQWKVDNALQSGNSQESVTEQDSKDSTYSLSSTLTLSKADYEKHKVYACEVTHQGLSSPVTKSFNRGECGGGGSGGGGSGGGGSEVQLVESGGGLVQPGGSLRLSCAASGRTFVTYGMGWFRQAPGKGREFVSAISWSGSMTSYGDSVKGRFTISRDNAKNTLYLQMNSLRPEDTAVYYCAAALGAVVYTTREPYTYWGQGTLVTVSS
notes: Format III: sdAb at the C-terminus of the light chain (300A6A6); also called PD-L1/SIRPα-LC2
Question: What does the source list for B1?
Answer: EC50 (PD-L1 expressed on cells): 0.912 nM; EC50, luminescence (RLU) in the PD-1/PD-L1 Blockade Assay [1]: 1.55 nM

B2: 248G3F6 (antibody, V domains shown)
VH: EVQLQQSGAELVKPGASVKLSCTASGFNFEDTYMHWVKQRPDQGLEWIGRIDPADGDTKYNPKFQDKATITVDTSSNTAYLQLSSLTSEDTAVYYCVRGNYVNWGQGTTLTVSS
VL: QIVLIQSPAIMSASPGERVTLTCRASSSVSSSYLYWYQQKPGSSPKLWIYSTSNLASGVPARFSGSGSGTSYSLTISSMEAEDAASYFCHQWYSYPRTFGGGTKLEIK
notes: murine hybridoma antibody; also called mouse anti-SIRPα mAb 248G3F6
Question: With B2 as the binder, how does the EC50 [2] read?
Answer: The EC50 was 0.0136 µg/mL.

B3: PD-L1/SIRPa-LN2 (bispecific antibody, human IgG4 S228P, kappa)
heavy: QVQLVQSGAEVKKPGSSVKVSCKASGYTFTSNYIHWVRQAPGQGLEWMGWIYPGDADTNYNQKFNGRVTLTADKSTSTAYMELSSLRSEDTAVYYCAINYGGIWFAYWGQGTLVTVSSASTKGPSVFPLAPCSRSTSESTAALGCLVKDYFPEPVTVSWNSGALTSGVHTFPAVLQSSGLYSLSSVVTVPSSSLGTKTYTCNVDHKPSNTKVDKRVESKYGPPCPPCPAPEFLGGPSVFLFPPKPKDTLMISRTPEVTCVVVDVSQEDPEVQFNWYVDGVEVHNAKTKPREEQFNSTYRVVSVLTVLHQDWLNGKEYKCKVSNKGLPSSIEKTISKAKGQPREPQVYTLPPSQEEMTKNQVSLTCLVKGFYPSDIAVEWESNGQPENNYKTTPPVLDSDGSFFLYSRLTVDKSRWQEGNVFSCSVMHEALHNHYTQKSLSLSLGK
light: EVQLVESGGGLVQPGGSLRLSCAASGRTFVTYGMGWFRQAPGKGREFVSAISWSGSMTSYGDSVKGRFTISRDNAKNTLYLQMNSLRPEDTAVYYCAAALGAVVYTTREPYTYWGQGTLVTVSSGGGGSGGGGSGGGGSDIQMTQSPSSLSASVGDRVTITCQASQDIGNKLIWYQQKPGKAPKLLIYYVTNLPGGVPSRFSGSGSGTDFTLTISSLQPEDFATYYCLQYKQNPLTFGQGTKLEIKRTVAAPSVFIFPPSDEQLKSGTASVVCLLNNFYPREAKVQWKVDNALQSGNSQESVTEQDSKDSTYSLSSTLTLSKADYEKHKVYACEVTHQGLSSPVTKSFNRGEC
notes: Format IV: sdAb at the N-terminus of the light chain (300A6A6); also called PD-L1/SIRPα-LN2
Question: B3 was tested. Which EC50 (PD-L1 expressed on cells) did it give?
Answer: The EC50 was 0.205 nM.

Question: And the “EC50, luminescence (RLU) in the PD-1/PD-L1 Blockade Assay” value (from here on “EC50, luminescence (RLU)”) [1]?
Answer: The value was 0.873 nM.

B4: 300A6A6 (antibody, V domains shown)
VH: QVQLQQSGTELVKPGSSVKISCKASGYTFTSNYIHWIRQQPGNGLEWIGWIYPGDGDTNYNQKFNGKATLTADKSSSTAYMQLSSLTSEDYAVYFCAINYGGIWFAYWGQGTLVTVSS
VL: DIQMTQSPSSMSASLGDRVTITCQASQDIGNKLIWFQQKPGKSPRLMIHYVTNLPGGVPLRFSGSRSGSDYSLTISSLESEDMADYYCLQYKQNPLTFGSGTKLEIK
notes: murine hybridoma antibody; also called mouse anti-SIRPα mAb 300A6A6
Question: B4 was tested. Which EC50 [2] did it give?
Answer: Its EC50 is 0.0105 µg/mL.

B5: PD-L1/SIRPa-HN2 (bispecific antibody, human IgG4 S228P, kappa)
heavy: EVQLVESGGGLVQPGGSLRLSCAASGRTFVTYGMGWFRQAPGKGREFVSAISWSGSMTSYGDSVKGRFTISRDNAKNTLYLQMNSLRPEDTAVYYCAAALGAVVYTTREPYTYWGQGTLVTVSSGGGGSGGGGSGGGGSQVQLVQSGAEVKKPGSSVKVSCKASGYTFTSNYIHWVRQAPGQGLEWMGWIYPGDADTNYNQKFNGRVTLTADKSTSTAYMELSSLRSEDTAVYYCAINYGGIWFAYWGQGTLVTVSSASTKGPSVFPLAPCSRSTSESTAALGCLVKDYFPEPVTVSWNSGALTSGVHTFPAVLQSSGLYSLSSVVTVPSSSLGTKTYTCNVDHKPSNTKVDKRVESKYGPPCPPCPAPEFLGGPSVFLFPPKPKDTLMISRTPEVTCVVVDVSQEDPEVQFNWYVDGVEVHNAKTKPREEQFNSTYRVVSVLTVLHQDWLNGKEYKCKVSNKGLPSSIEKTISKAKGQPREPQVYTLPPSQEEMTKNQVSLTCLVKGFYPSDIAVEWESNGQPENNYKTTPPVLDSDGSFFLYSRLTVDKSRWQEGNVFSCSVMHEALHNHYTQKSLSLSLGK
light: DIQMTQSPSSLSASVGDRVTITCQASQDIGNKLIWYQQKPGKAPKLLIYYVTNLPGGVPSRFSGSGSGTDFTLTISSLQPEDFATYYCLQYKQNPLTFGQGTKLEIKRTVAAPSVFIFPPSDEQLKSGTASVVCLLNNFYPREAKVQWKVDNALQSGNSQESVTEQDSKDSTYSLSSTLTLSKADYEKHKVYACEVTHQGLSSPVTKSFNRGEC
notes: Format II: sdAb at the N-terminus of the heavy chain (300A6A6); also called PD-L1/SIRPα-HN2
Question: With B5 as the binder, how does the EC50 (PD-L1 expressed on cells) read?
Answer: The EC50 was 0.269 nM.

Question: What about the “EC50, luminescence (RLU)” value [1] of the same binder?
Answer: Its value is 0.908 nM.

B6: PD-L1/SIRPa-HC1 (bispecific antibody, human IgG4 S228P, kappa)
heavy: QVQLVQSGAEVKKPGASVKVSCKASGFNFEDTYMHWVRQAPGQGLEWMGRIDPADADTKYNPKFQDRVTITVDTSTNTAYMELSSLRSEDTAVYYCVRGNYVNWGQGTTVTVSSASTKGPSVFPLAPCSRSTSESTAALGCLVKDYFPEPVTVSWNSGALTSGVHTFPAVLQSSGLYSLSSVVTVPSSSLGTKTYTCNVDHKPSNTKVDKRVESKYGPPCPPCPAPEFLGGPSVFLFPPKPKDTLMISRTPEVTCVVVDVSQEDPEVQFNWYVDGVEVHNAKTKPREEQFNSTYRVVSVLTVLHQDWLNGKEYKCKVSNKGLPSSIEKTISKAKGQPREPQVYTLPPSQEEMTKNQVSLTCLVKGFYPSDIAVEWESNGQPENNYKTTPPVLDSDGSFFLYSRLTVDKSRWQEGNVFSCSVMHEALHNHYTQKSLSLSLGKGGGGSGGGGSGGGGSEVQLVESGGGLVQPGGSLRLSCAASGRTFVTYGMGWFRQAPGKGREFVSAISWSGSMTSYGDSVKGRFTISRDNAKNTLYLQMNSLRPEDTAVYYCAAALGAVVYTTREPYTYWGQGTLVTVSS
light: EIVLTQSPGTLSLSPGERATLSCRASSSVSSSYLYWYQQKPGQAPRLLIYSTSNLASGIPDRFSGSGSGTDYTLTISRLEPEDAAVYFCHQWYSYPRTFGGGTKVEIKRTVAAPSVFIFPPSDEQLKSGTASVVCLLNNFYPREAKVQWKVDNALQSGNSQESVTEQDSKDSTYSLSSTLTLSKADYEKHKVYACEVTHQGLSSPVTKSFNRGEC
notes: Format I: AS11948SVH12 sdAb at the C-terminus of IgG4 Fc of 02-hz52 (248G3F6); also called PD-L1/SIRPα-HC1
Question: Which EC50 (PD-L1 expressed on cells) does the source give for B6 here?
Answer: The EC50 was 0.321 nM.

Question: And the “EC50, luminescence (RLU)” value [1]?
Answer: Its value is 0.9 nM.
